Laboratory results taken from PMC8307404, “Crystal Structure-Guided Design of Bisubstrate Inhibitors and Photoluminescent Probes for Protein Kinases of the PIM Family” (Molecules, 2021).
Square brackets hold non-standard residues; d marks the D form. Peptide text beside a SMILES is read from it. * marks the point of attachment. X3 = O=C(CCCCCNCc1nc2c(sc3cc(Br)cnc32)c(=O)[nH]1)*

Columns and labels:
Assay in all cases: Kinase profiling (radiometric filter-binding)
Assay type in all cases: biochemical
EIF2AK3 = target: T1, EIF2AK3 (Homo sapiens, UniProt Q9NZJ5); conditions: EIF2AK3, 1 µM inhibitor; read-out: Residual activity, %
T1 sequence (Q9NZJ5 30-1116): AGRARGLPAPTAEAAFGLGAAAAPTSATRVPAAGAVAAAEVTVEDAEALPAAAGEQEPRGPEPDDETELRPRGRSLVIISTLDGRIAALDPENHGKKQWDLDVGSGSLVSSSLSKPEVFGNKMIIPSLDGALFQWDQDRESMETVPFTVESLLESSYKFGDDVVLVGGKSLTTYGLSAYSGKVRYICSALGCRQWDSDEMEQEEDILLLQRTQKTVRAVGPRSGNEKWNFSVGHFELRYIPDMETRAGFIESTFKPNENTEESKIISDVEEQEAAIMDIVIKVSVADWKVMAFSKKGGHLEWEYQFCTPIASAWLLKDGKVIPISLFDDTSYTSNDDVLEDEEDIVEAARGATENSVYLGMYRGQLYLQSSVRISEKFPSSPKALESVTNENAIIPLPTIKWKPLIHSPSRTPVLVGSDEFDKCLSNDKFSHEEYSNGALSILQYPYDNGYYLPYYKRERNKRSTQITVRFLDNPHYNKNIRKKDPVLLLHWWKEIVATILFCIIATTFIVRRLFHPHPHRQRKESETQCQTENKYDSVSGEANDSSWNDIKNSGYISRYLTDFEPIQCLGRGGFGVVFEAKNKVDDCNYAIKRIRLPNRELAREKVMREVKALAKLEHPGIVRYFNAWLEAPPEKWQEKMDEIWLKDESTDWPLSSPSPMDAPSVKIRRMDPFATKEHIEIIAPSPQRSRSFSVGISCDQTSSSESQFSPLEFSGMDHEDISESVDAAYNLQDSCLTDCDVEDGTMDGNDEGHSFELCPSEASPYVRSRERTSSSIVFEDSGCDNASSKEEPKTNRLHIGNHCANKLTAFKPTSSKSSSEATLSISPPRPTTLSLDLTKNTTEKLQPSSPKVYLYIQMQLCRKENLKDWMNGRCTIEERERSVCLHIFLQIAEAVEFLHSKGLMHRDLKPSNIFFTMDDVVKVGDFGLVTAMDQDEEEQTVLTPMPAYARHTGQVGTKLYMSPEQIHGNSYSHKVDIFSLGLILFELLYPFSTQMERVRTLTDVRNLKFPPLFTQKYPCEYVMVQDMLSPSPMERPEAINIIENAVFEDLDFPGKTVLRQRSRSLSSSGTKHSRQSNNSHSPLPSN
How it was run: (§1)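 Human kinase, ATP (≤ KM) and test compound (1 µM final) were combined; phosphorylation was quantified by radiometric filter binding. Activity left was normalised to the control reaction without compound.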

TSSK1 = target: T2, TSSK1 (Homo sapiens, UniProt Q9BXA7); conditions: TSSK1, 1 µM inhibitor; read-out: Residual activity, %
T2 sequence (Q9BXA7 1-367): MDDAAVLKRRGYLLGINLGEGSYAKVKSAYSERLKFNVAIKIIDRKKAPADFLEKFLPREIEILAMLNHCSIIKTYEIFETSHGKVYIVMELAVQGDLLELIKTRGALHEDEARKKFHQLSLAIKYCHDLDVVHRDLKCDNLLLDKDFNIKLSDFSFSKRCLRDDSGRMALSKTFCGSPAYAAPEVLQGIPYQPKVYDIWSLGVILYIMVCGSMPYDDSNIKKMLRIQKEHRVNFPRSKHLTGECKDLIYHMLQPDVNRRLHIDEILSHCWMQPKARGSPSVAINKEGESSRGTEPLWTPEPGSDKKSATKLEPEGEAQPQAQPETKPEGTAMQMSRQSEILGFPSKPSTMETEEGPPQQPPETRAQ
How it was run: as §1

ULK1 = target: T3, ULK1 (Homo sapiens, UniProt O75385); conditions: ULK1, 1 µM inhibitor; read-out: Residual activity, %
T3 sequence (O75385 1-1050): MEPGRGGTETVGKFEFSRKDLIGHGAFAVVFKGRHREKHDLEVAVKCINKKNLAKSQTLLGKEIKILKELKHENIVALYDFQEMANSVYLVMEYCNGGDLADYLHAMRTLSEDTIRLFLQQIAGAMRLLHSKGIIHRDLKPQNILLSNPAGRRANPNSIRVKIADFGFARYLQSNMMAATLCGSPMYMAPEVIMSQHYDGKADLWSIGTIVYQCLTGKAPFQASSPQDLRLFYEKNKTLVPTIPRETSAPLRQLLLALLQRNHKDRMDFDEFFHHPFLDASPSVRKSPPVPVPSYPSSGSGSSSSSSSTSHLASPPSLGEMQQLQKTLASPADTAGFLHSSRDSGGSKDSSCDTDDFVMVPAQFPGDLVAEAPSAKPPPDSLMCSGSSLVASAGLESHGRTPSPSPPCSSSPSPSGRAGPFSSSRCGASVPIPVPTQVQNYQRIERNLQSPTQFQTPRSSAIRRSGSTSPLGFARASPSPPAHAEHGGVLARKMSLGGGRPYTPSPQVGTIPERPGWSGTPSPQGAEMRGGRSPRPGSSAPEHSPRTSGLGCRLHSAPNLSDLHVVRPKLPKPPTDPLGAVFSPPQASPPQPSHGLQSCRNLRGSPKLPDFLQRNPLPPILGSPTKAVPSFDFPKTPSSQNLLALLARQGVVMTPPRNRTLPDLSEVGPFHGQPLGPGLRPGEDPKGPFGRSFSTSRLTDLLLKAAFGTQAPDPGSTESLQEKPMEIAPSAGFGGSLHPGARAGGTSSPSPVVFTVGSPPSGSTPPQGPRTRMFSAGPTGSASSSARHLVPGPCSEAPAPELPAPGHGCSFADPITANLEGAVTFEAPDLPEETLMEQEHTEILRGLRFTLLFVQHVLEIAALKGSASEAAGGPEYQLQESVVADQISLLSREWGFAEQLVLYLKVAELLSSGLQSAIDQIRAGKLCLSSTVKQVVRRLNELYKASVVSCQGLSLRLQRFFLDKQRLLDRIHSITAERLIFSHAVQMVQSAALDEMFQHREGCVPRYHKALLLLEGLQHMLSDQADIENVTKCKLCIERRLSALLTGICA
How it was run: as §1

Row | Structure (SMILES) | remaining activity at 1 µM (EIF2AK3) | remaining activity at 1 µM (TSSK1) | remaining activity at 1 µM (ULK1)
1 | N=C(N)NCCC[C@@H](NC(=O)CNC(=O)[C@@H](CCCNC(=N)N)NC(=O)[C@@H](CCCNC(=N)N)NC(=O)Cn1cc(CNCc2nc3c(sc4ccc(Br)cc43)c(=O)[nH]2)nn1)C(=O)N[C@H](CCCCN)C(N)=O [Compound 3, BBTP-Amt-(D-Arg)2-Gly-D-Arg-D-Lys-NH2] | 113 ± 13% | 100 ± 10% | 108 ± 11%
2 | N=C(N)NCCC[C@@H](NC(=O)CCCCCNCc1nc2c(sc3cc(Br)cnc32)c(=O)[nH]1)C(=O)N[C@H](CCCNC(=N)N)C(=O)N[C@H](CCCNC(=N)N)C(=O)N[C@H](CCCNC(=N)N)C(=O)N[C@H](CCCNC(=N)N)C(=O)N[C@H](CCCNC(=N)N)C(=O)N[C@H](CCCCN)C(N)=O [ARC-3126, BPTP-Ahx-(D-Arg)6-D-Lys-NH2] (X3-[dR][dR][dR][dR][dR][dR][dK]-NH2) | 60 ± 6% | 97 ± 16% | 119 ± 6%
3 | N=C(N)NCCC[C@@H](NC(=O)CCCCCNC(=O)Cn1cnc2c(I)c(I)c(I)c(I)c21)C(=O)N[C@H](CCCNC(=N)N)C(=O)N[C@H](CCCNC(=N)N)C(=O)N[C@H](CCCNC(=N)N)C(=O)N[C@H](CCCNC(=N)N)C(=O)N[C@H](CCCNC(=N)N)C(=O)N[C@H](CCCCN)C(N)=O [ARC-3125, TIBI-CH2-C(=O)-Ahx-(D-Arg)6-D-Lys-NH2] | 11 ± 11% | 63 ± 6% | 89 ± 9%
4 | N=C(N)NCCC[C@@H](NC(=O)CNC(=O)[C@@H](CCCNC(=N)N)NC(=O)[C@@H](CCCNC(=N)N)NC(=O)CCCCCCCNCc1nc2c(sc3cc(Br)cnc32)c(=O)[nH]1)C(=O)N[C@H](CCCCN)C(N)=O [Compound 1, BPTP-Aoc-(D-Arg)2-Gly-D-Arg-D-Lys-NH2] | 94 ± 7% | 98 ± 9% | 107 ± 5%
5 | N=C(N)NCCC[C@@H](NC(=O)CNC(=O)[C@@H](CCCNC(=N)N)NC(=O)[C@@H](CCCNC(=N)N)NC(=O)CCCCCCCNCc1nc2c(sc3ccc(Br)cc32)c(=O)[nH]1)C(=O)N[C@H](CCCCN)C(N)=O [Compound 2, BBTP-Aoc-(D-Arg)2-Gly-D-Arg-D-Lys-NH2] | 98 ± 5% | 108% | 99 ± 6%
